Earlier results as cited in patent US11866502B2, “Anti-FGFR2 antibodies and methods of use thereof” (Regeneron Pharmaceuticals, Inc., priority 2020, dated 2024).

Test system: xenograft models
Conditions: several xenograft models; cited from earlier work

B1: Aprutumab-TTC: anti-FGFR2 antibody, a chelator moiety covalently conjugated to the antibody, and the alpha particle-emitting radionuclide thorium-227 (conjugate, chains of the INN, looked up)
VH: EVQLLESGGGLVQPGGSLRLSCAASGFTFSSYAMSWVRQAPGKGLEWVSAISGSGTSTYYADSVKGRFTISRDNSKNTLYLQMNSLRAEDTAVYYCARVRYNWNHGDWFDPWGQGTLVTVSS
VL: QSVLTQPPSASGTPGQRVTISCSGSSSNIGNNYVSWYQQLPGTAPKLLIYENYNRPAGVPDRFSGSKSGTSASLAISGLRSEDEADYYCSSWDDSLNYWVFGGGTKLTVL
modifications: chelator conjugate with thorium-227
tumor growth in xenograft models: inhibited tumor growth
